Results on 14 compounds are retold here after patent US7291673B2, “Conjugate addition reactions for the controlled delivery of pharmaceutically active compounds” (Eidgenossiche Technische Hochschule Zurich, priority 2000, dated 2007).

Non-standard residues stand in square brackets, D forms with d. Residues, ends and D or L forms follow the SMILES beside them. No end group written: not given here. Some results are limits rather than exact numbers.

A word on the solubility: it is the concentration that dissolves in the medium under given conditions.

Series [1] addresses T1, Collagenase (Matrix metalloproteinase I) (Homo sapiens, UniProt P03956).
T1 sequence (P03956 100-469): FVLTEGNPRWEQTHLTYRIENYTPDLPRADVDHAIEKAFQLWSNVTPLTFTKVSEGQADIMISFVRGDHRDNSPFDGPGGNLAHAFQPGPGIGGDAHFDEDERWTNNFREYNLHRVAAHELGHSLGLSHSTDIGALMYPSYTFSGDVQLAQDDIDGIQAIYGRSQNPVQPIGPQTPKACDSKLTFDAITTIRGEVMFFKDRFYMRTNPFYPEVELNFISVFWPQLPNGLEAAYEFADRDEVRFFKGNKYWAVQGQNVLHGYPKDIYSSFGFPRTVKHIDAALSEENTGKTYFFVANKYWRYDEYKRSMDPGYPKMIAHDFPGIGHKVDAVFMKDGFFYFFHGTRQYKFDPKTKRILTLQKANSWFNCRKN
The following applies: cited from earlier work.

Series [2] in a line: Dissolution of albumin particles in PEG solutions. It counts as physicochemical. The source says:
For the gels in which controlled release was observed, protein particles could be seen within the gels for the entire period of release. For all gels, the disappearance of protein particles from the gel was coincident with the completion of delivery of greater than 90% of the protein in the gel. Thus, the solubility of bovine serum albumin in PEG-containing solutions was likely the most important factor in realizing controlled release of the protein. When a solution containing dissolved albumin was mixed with a solution containing dissolved PEG, the albumin precipitated, dependent upon the concentrations and the molecular weight of the PEG. Similarly, when particles of bovine serum albumin were added to a PEG solution, the kinetics of dissolution of the albumin were strongly affected by the presence of PEG. The albumin solids completely dissolved in 50 mM PBS buffer, pH 7.4 in three minutes in the absence of PEG. With 10% PEG molecular weight 8000 in solution, the time to dissolution of the albumin particles increased to six minutes. […] With 20% PEG molecular weight 8000, the protein particles dissolved to form a second liquid phase within one hour. This was presumably a true coacervate with one protein-rich, polymer-poor phase, and one polymer-rich, protein-poor phase.

For series [3], the target named is plasmin (Homo sapiens, UniProt P00747). As to the kind of experiment: Plasmin stability of peptides by analytical C18 HPLC. It counts as biochemical. The note with it: 37° C.; plasmin at 1/1000 the peptide concentration. The source says:
Analytical C18 HPLC (linear acetonitrile gradient over 0.1% TFA in water) was used to confirm the relative plasmin-stability of GCY-DLys-N-DArg-DCG. The following samples were run: plasmin; […]; plasmin+[…]; GCY-DLys-N-DArg-DCG; and plasmin+GCY-DLys-N-DArg-DCG.

The test system of series [4] is human umbilical vein endothelial cells. As to the kind of experiment: Endothelial cell spreading on photopolymerized PEG gels containing peptides. It counts as cell-based. The following applies: 400 cells per mm^2; normal cell culture medium. The protocol:
Polyethylene glycol diacrylate of mol. wt. 8000 (230 mg/ml) was allowed to dissolve in HEPES buffered saline (10 mmol HEPES, Sigma, 8 g/L NaCl, pH 7.4) for one hour. Triethanolamine (Aldrich, 15.3 μl/ml) was added, and the pH of the solution was adjusted to pH 8 with 6 N HCl. Cysteine containing peptides were dissolved in 116.5 μl of HEPES buffered saline, and added to 870 μl of the PEG solution with vortexing. After 5 minutes, 3.5 μl of N-vinyl pyrrolidone and 10 μl of a 10 mM solution of Eosin Y were added, followed by vortexing. Gels were formed by exposure to light at 75 mW/cm^2 for one minute (Cermax Xenon Lightsource, transmitting light between 470 and 520 nm; ILC Technology, Sunnyvale, Calif., USA). Gels were allowed to swell in Tris buffered saline, pH 7.4 (4.36 g Tris HCl, 0.64 g Trizma base, 8 g NaCl, 0.2 g KCl per 1 L, all from Sigma) for 36 hr.
PEG gels were prepared as described above, using the peptide […]. Most cells have receptors that recognize the sequence GRGDSPG (SEQ ID NO: 74), and cells will interact with surfaces displaying immobilized RGD containing peptides. […] Cells were seeded onto the gels at a concentration of 400 cells per mm^2, and the number of spread cells per area were counted at different times (see FIG. 6). […]

Series [5] concerns Human foreskin fibroblasts. As to the kind of experiment: Fibroblast adhesion and spreading on conjugate addition gels. It counts as cell-based. The following applies: 6 hours post-seeding; RGD peptide on one of every 12 acrylates. How it is done:
Conjugate addition gels were made with 0.1 g/ml PEG-2500-3A and 1.1 acrylates per sulfhydryl in […]. The gels were swollen for 24 hours in Dulbecco's modified Eagle's medium (some in serum-free conditions and some in 10% fetal bovine serum) containing 1% antibiotic and antimycotic agents. Human foreskin fibroblasts (passage 7; passaged with trypsin/EDTA) were seeded onto the gels. […] The cells became increasingly clumped together. The cellular behavior was independent of serum in the medium. Control cells seeded on tissue culture treated polystyrene spread normally.
Conjugate addition gels were made with PEG-2500-3A, […], and an RGD-containing peptide ([…]) incorporated in a pendant fashion. The gels were made with 0.1 g PEG-2500-3A/ml and 1.1 acrylates per sulfhydryl in […]. The gels were swollen for more than 36 hours in Dulbecco's modified Eagle's medium (some in serum-free conditions and some in 10% fetal bovine serum) containing 1% antibiotic and antimycotic agents. When the RGD peptide was incorporated on one of every 12 acrylates of the PEG-2500-3A, human foreskin fibroblasts (passage 8; passaged by trypsin/EDTA) adhered to the gels (both those swollen in serum-free conditions and those in serum-containing medium). At 6 hours post-seeding, the cells were uniformly distributed over the gel surface, and approximately 50% of the seeded cells were spread (in both medium conditions). […]

The conditions of series [6]: cited from earlier work.
Series [7] is described as follows: Water solubility of peptide. It counts as physicochemical. The protocol:
The peptide […] (SEQ ID NO: 58) was designed to be sensitive to hydrolysis by the enzyme plasmin, to contain more than one thiol (cysteine) for addition reaction with conjugated unsaturated groups, and to be very water soluble. The peptide was synthesized according to the methods described above. The peptide was extremely water soluble, up to at least 120 mg/ml.

Chain of plasmin (P00747 581-810 limits assumed, species assumed): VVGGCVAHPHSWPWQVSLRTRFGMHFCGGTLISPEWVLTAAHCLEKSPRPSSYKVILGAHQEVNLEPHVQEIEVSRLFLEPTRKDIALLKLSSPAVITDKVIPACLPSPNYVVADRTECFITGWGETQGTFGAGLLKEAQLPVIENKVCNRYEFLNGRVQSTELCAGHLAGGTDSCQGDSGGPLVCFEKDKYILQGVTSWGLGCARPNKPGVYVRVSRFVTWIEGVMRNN
Chain of plasmin (P00747 97-580 partner limits assumed, species assumed): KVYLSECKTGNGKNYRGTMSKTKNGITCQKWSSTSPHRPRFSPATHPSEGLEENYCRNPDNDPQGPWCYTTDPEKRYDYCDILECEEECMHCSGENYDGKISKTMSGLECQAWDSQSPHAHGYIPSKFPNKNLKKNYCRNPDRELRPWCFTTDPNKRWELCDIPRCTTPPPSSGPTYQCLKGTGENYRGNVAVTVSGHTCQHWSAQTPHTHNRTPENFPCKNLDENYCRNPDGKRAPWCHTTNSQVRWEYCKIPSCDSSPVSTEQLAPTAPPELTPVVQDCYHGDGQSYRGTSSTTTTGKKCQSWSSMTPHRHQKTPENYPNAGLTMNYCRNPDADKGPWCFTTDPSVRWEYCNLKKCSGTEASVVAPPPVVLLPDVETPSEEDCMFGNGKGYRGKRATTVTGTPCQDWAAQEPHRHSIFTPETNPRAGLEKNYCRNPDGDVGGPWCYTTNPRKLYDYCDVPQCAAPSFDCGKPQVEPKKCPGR

As to GPQGIWGQ, the “kcat/Km relative to that of PQGIAG” value in series [1] is listed as >700% (very fast).

As to GPVGIAGQ, the “kcat/Km relative to that of PQGIAG” value in series [1] is on record as 30% (slow).

Turning to “albumin: bovine serum albumin (Cohn fraction V), model protein”, the “time to complete dissolution of albumin solids” value in series [2] (50 mM PBS buffer, pH 7.4, absence of PEG) is reported as “three”. Moreover, the “time to dissolution of albumin particles” value in series [2] (10% PEG molecular weight 8000) is listed as “six”. The “time to dissolve into a second liquid phase” value in series [2] (20% PEG molecular weight 8000) is recorded as “one”. Further, the dissolution of protein entry in series [2] (30 or 40% PEG molecular weight 8000) is on record as “did not dissolve after seven days”.

On to “GCY-DLys-N-DArg-DCG (GCY[dK]N[dR]DCG; cysteine pairing not given here)”, for which the “degradation of peptide by plasmin” value in series [3] is reported as “unaffected by the plasmin at 24 hours”. In the case of GPQGIAGQ, the “kcat/Km relative to that of PQGIAG” value in series [1] is on record as 100% (normal). As to GPQGIFGQ, in series [1], the “kcat/Km relative to that of PQGIAG” value is reported as >300% (faster). As to GPQGVAGQ, the “kcat/Km relative to that of PQGIAG” value in series [1] was 9% (slower). Regarding “GCGYGRGDSPG (not fully specified) [RGD-containing adhesion peptide incorporated into gels in a pendant fashion]”, in series [4], the “cell spreading on PEG gels containing peptide” value is listed as “Cells could only spread on gels that contained the peptide”. Also, in series [5], the seeded cells spread entry was “approximately 50%”. In the case of `NC(=O)C[C@H](N)C(=O)O` [asparagine], the “pK of alpha amine” value in series [6] (alpha amine of amino acid) was 8.8. On to `N=C(N)NCCC[C@H](NC(=O)[C@H](CC(N)=O)NC(=O)[C@H](CCCCN)NC(=O)[C@H](Cc1ccc(O)cc1)NC(=O)[C@H](CS)NC(=O)CN)C(=O)N[C@@H](CC(=O)O)C(=O)N[C@@H](CS)C(=O)NCC(=O)O` (H-GCYKNRDCG-OH; N-terminus and C-terminus assumed), for which, in series [7], the solubility was ≥ 120 mg/mL.

Take `NCCCC[C@H](N)C(=O)O` [lysine]: the “pK of side chain epsilon amine” value in series [6] (side chain epsilon amine) is given as 10.80. On to GPQGIASQ, for which, in series [1], the “kcat/Km relative to that of PQGIAG” value was 130% (fast).

For GCGYGRDGSPG (Based on Homo sapiens), the “cell spreading on PEG gels containing peptide” value in series [4] is “has no biological activity”. With GPQGRAGQ, the “kcat/Km relative to that of PQGIAG” value in series [1] is recorded as <5% (very slow).
